This note sets out measurements from patent US20230032737A1 (published 2023).

The experiment concerns the target purified human factor D (from human plasma) (human, UniProt P00746 26-253). As to the kind of experiment: Biacore SPR. On the technique in general: SPR reads the build-up and loss of mass on a sensor chip optically.

purified human factor D (from human plasma), sequence (P00746 26-253): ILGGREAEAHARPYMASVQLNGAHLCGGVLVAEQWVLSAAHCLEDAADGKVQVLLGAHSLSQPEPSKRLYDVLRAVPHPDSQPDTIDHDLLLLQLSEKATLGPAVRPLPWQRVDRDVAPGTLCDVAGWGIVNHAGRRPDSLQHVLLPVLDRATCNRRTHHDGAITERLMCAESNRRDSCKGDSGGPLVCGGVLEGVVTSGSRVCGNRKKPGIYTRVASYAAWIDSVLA

B1: recombinant chimeric 11-8A1 (variable region of 11-8A1 + constant region of human IgG4) (antibody, V domains shown)
VH: EVQLQQSGADLVRPGASVKLSCTTSGFNIKDTYVHWVKQRPEQGLEWIGRIDPANGLTTFDPRFQAKATITADTSSNTAYLQLSSLTSEDTAVYYCTYAMEYWGQGTSVTVSS
VL: QIVLTQSPAIMSASPGERVTMTCSARSDVSYMYWYQQKPGSSPRLLIYDTSNLASGVPVRFSASGSGTSYSLTISRMEAEDAATYYCQQWSSYPPWTFGGGTKLEIK
Turning to B1, binding was characterised by a dissociation constant (Kd) of 0.153 nM.

B2: mAb 11-8A1 (hybridoma-derived murine anti-human factor D monoclonal antibody) (antibody, V domains shown)
VH: EVQLQQSGADLVRPGASVKLSCTTSGFNIKDTYVHWVKQRPEQGLEWIGRIDPANGLTTFDPRFQAKATITADTSSNTAYLQLSSLTSEDTAVYYCTYAMEYWGQGTSVTVSS
VL: QIVLTQSPAIMSASPGERVTMTCSARSDVSYMYWYQQKPGSSPRLLIYDTSNLASGVPVRFSASGSGTSYSLTISRMEAEDAATYYCQQWSSYPPWTFGGGTKLEIKR
As to B2, the dissociation constant (Kd) (commonly the equilibrium constant for the complex coming apart) was determined as 0.148 nM.
